Source: patent US20040132073A1 (Takeda / Millennium, published 2004)
Ends that are not written are not given here.

What was measured:
[1] = target: human G protein-coupled receptor protein hOT7T022 (human, UniProt Q9GZQ6 1-430); assay: cell-based or functional assay
[2] = target: rat G protein-coupled receptor protein rOT7T022L (rat, UniProt Q9EP86 1-432); assay: cell-based or functional assay
rat G protein-coupled receptor protein rOT7T022L, sequence (Q9EP86 whole entry): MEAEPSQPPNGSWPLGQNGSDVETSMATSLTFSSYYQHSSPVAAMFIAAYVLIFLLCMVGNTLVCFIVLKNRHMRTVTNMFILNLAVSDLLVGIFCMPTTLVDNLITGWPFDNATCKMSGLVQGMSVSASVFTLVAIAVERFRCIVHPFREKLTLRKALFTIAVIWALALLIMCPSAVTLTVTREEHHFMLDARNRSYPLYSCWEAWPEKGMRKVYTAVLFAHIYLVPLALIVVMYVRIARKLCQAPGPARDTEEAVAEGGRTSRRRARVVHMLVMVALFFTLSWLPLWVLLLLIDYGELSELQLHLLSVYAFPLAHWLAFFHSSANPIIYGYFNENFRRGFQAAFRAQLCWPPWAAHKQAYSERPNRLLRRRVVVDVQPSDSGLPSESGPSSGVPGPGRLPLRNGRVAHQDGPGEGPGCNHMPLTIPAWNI

human G protein-coupled receptor protein hOT7T022, sequence (Q9GZQ6 whole entry): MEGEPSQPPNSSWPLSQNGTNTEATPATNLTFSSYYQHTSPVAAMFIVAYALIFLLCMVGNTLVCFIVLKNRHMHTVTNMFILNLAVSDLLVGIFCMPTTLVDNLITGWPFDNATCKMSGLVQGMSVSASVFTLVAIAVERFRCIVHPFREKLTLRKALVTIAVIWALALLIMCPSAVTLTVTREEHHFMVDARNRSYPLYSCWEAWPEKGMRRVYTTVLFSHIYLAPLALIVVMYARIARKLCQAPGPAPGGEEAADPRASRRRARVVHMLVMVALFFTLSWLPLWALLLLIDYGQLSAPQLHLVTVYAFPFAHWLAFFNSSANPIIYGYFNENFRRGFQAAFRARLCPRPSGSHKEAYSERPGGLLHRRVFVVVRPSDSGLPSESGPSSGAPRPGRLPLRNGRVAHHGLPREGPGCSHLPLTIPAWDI

B1: hRFRP-1-37 (peptide having the 56 (Ser) to 92 (Phe) amino acid sequence in SEQ ID NO: 1) (peptide)
peptide: SLNFEELKDWGPKNVIKMSTPAVNKMPHSFANLPLRF-NH2
Question: B1 was tested. Which “ED50, inhibition of the increased cAMP level in the cells by the forskolin treatment” value [1] did it give?
Answer: Its value is 21 nM.

B2: rRFRP-1-37 (peptide having the 58 (Ser) to 94 (Phe) amino acid sequence in SEQ ID NO: 50) (peptide)
peptide: SVTFQELKDWGAKKDIKMSPAPANKVPHSAANLPLRF
modifications: ends and bridges not checked
Question: Which “ED50, inhibition of the increased cAMP level in the cells by the forskolin treatment” value [1] does the source give for B2 here?
Answer: The value was 30 nM.

B3: peptide MPHSFANLPLRFamide (SEQ ID NO: 39) (peptide)
peptide: MPHSFANLPLRF-NH2
Question: Which “ED50, inhibition of the increased cAMP level in the cells by the forskolin treatment” value [1] does the source give for B3 here?
Answer: Its value is 4.5 nM.

Question: And the “IC50 of cAMP production suppression (forskolin-stimulated cells, cAMP EIA)” value [2]?
Answer: The value was 0.5 nM.

B4: PQRFamide (peptide shown by Pro-Gln-Arg-Phe-NH2) (peptide)
peptide: PQRF-NH2
Question: For B4, which “ED50, inhibition of the increased cAMP level in the cells by the forskolin treatment” value [1] is on record?
Answer: Its value is no less than 1000 nM.
